Experimental data: IntAct's records for PubMed 19351902

B1: Short transient receptor potential channel 3 (Mus musculus), Q9QZC1 (parent)
chain: MSTKVKKCREPARVTLPAPEEEEDGEAEGGESQRRRRGWRGVNGGLEPPCPRAPPSPGPDASSEGSPSRWRTAGMRDKGRRQAVRGPAFMFGARGPSLTAEEERFLDAAEYGNIPVVRKMLEESRTLNVNCVDYMGQNALQLAVGNEHLEVTELLLKKENLARIGDALLLAISKGYVRIVEAILGHPGFAASRRLTLSPCEQELRDDDFYAYDEDGTRFSPDITPIILAAHCHKYEVVHLLLLKGARIERPHDYFCRCSDCAEKQRLDAFSHSRSRINAYKGLASPAYLSLSSEDPVLTALELSNELAKLANIEKEFKNDYRKLSMQCKDFVVGVLDLCRDSEEVEAILNGDLESAEPLERHGHKASLSRVKLAIKYEVKKFVAHPNCQQQLLTIWYENLSGLREQTIAIKCLVVLVVALGLPFLAIGYWIAPCSRLGKILRSPFMKFVAHAASFIIFLGLLVFNASDRFEGITTLPNITVIDYPKQIFRVKTTQFTWTEMLIMVWVLGMMWSECKELWLEGPREYIVQLWNVLDFGMLSIFIAAFTARFLAFLQATKAQQYVDSHVQESDLSEVTLPPEVQYFTYARDKWLPSDPQIISEGLYAIAVVLSFSRIAYILPANESFGPLQISLGRTVKDIFKFMVLFIMVFLAFMIGMFILYSYYLGAKVNPAFTTVEESFKTLFWSIFGLSEVTSVVLKYDHKFIENIGYVLYGIYNVTMVVVLLNMLIAMINSSYQEIEDDSDVEWKFARSKLWLSYFDDGKTLPPPFSLVPSPKSFVYFIMRITNFSKCRRRRLQKDLELGMGNSKSRLNLFTQSNSRVFESHSFNSILNQPTRYQQIMKRLIKRYVLKAQVDKENDEVNEGELKEIKQDISSLRYELLEDKSQATEELAILIHKLSEKLNPSVLRCE

Variants of: B1
Settings: with kpcg_human PRKCG

Row | Variant | effect of a mutation on the interaction
1 | T635A | disrupting interaction strength
